In series [1] the test system is T1, oligopeptide sequence GNWPWDWGWDWPWNWG (SEQ ID NO:8) tethering TCPP to the nanoparticle.
T1 sequence: GNWPWDWGWDWPWNWG

Series [2] deals with T2, oligopeptide sequence GNwPwDwGwDwPwNwG (SEQ ID NO:9) tethering TCPP to the nanoparticle.
T2 sequence: GNWPWDWGWDWPWNWG

For series [3], the system named is T3, Cyanine 5.5 linked GR7G peptide (SEQ ID NO:5) on nanoplatform 1 / nanoplatform 2.
T3 sequence: GRRRRRRRG

Series [4] concerns T4, oligopeptide sequence GRARQRLRARQG (SEQ ID NO:7) tethering TCPP to the nanoparticle.
T4 sequence: GRARQRLRARQG

For series [5], the system named is T5, oligopeptide sequence GRRRRRRRG (SEQ ID NO:5) tethering TCPP to the nanoparticle.
T5 sequence: GRRRRRRRG

The source of these data is US20180099057.

As for indoleamine 2,3-dioxygenase 1, the “limit of detection, nanoplatform fluorescence after 60 min. of incubation in HEPES buffer” value in series [1] is “the LOD for IDO1 is 10^-15 M”. In addition, in series [2], the “calibration of nanoplatform fluorescence after 60 min. of incubation in HEPES buffer” value is “the concentration of IDO1 can be determined over the range from 10^-7 to 10^-14 M”.
As to tryptophan 2,3-dioxygenase, the “calibration of nanoplatform fluorescence after 60 min. of incubation in HEPES buffer” value is recorded as “the concentration of TDO can be determined over the whole range from 10^-7 to 10^-16 M” in series [1] and “TDO does not react with the substrate GNwPwDwGwDwPwNwG (SEQ ID NO:9), because it is specific for L-tryptophan” in series [2].

B1: arginase II (enzyme, UniProt P78540 23-354, looked up, species assumed)
Arginase-2, mitochondrial: VHSVAVIGAPFSQGQKRKGVEHGPAAIREAGLMKRLSSLGCHLKDFGDLSFTPVPKDDLYNNLIVNPRSVGLANQELAEVVSRAVSDGYSCVTLGGDHSLAIGTISGHARHCPDLCVVWVDAHADINTPLTTSSGNLHGQPVSFLLRELQDKVPQLPGFSWIKPCISSASIVYIGLRDVDPPEHFILKNYDIQYFSMRDIDRLGIQKVMERTFDLLIGKRQRPIHLSFDIDAFDPTLAPATGTPVVGGLTYREGMYIAEEIHNTGLLSALDLVEVNPQLATSEEEAKTTANLAVDVIASSFGQTREGGHIVYDQLPTPSSPDESENQARVRI
As for B1, in series [3], the “cyanine 7.0 fluorescence (FRET) of nanoplatform 1 after 1 h of incubation at 37° C.” value is on record as “After incubation with arginase II, an increase in cyanine 7.0 fluorescence was observed”; the “limit of detection from the calibration curve of FIG. 13 (nanoplatform 2, printed as nanoplatform 1)” value is reported as “the LOD (limit of detection) of nanoplatform 1 is 10^-10 M”; the “limit of detection of nanoplatform 1, quotient of integrated cyanine 5.5 and cyanine 7.0 fluorescence bands” value is given as “the LOD (limit of detection) of nanoplatform 1 is down to the picomolar level”; the “limit of detection of nanoplatform 2, fluorescence increase over the whole range” value is given as “its LOD is only at 10^-7 M of arginase II concentration”. The “limit of detection, TCPP fluorescence of the nanoplatform after 60 min. of incubation in HEPES buffer” value in series [4] was “The limit of detection is estimated to 2×10^-16M arginase II”. For the same molecule, the “limit of detection, TCPP fluorescence of the nanoplatform after 60 min. of incubation in PBS” value in series [5] is “The limit of detection is 10^-15 M arginase II”.
